“Also recorded” adds a separate entry of the source.
Legend:
[1] = Solubility of synthetic peptides in buffer; format: physicochemical; conditions: for Solubility following purification: HPLC-purified peptides; for Solubility: peptides dissolved in 20 mM Tris-HCl, pH 8.0, 250 mM NaCl, unpurified preparations
Method: Synthesis and Purification of Oligopeptides. Peptides were synthesised by continuous flow Fmoc chemistry (Atherton and Sheppard, 1989; McLean et al., 1991) and, where stated in the text, were purified by preparative reverse-phase HPLC (Owsianka et al., 1993). The Mr values of peptides were determined by fast atom bombardment mass spectrometry (M-Scan) and corresponded to the predicted values. Peptides were dissolved in 20 mM Tris-HCl, pH 8.0, 250 mM NaCl and centrifuged at 11,500 g for 1 minute prior to use. […] Precipitates were removed by centrifugation before use.

[2] = target: T1, VP16/VP22trunc interaction (Human herpesvirus 1, UniProt P06492); experiment: Far Western analysis of peptides blocking VP16 binding to immobilised VP22trunc; design: species or system HSV-1; conditions: for Blocking of VP16 binding to immobilised VP22trunc (Far Western), crude peptides: strips pre-incubated with 1 mg of crude peptide, FIG. 7A; for Blocking of VP16 binding to immobilised VP22trunc (Far Western), repeat with purified peptides D and E: strips pre-incubated with 1 mg peptide, FIG. 7B
T1 construct: Plasmid pETVP16 was used to express full-length VP16 under the control of the T7 RNA polymerase promoter; made in house; host or cells: E. coli BL21(DE3)
T1 sequence (P06492 whole entry): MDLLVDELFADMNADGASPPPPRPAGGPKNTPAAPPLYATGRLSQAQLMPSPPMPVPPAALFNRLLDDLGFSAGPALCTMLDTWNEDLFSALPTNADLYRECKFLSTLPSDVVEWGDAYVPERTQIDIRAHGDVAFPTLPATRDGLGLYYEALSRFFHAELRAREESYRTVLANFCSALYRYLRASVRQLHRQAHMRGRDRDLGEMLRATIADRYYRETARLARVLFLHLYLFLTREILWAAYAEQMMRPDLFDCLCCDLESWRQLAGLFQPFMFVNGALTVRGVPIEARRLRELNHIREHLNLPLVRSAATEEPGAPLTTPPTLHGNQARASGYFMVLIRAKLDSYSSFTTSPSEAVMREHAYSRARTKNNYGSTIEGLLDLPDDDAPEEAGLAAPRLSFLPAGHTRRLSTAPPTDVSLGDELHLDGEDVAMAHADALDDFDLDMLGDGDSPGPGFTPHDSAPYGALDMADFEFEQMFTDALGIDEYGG
Method: FIG. 7 Far Western analysis of the ability of peptides to block the interaction between VP16 and immobilised VP22trunc. Purified VP22trunc was added to partially purified extract of VP16 and the sample run on a 12% polyacrylamide gel. Proteins were then transferred to nitrocellulose membrane and the blot was cut into strips, with each strip containing approximately 1 g of VP22trunc. In (A), strips were pre-incubated with 1 mg of each of the following peptides: lane 2, no peptide, lane 3, peptide C; lane 4, peptide D; lane 5, peptide E; lane 6, peptide F; lane 7, peptides D and E; lane 8, peptides C and F. In (B) strips were pre-incubated with 1 mg of each of the following peptides: lane 2, no peptide, lane 3, peptide C; lane 4, purified peptide D; lane 5, purified peptide E; lane 6, peptide F. 24 g of pure VP16 was then added to strips 2 to 8 in (A) and strips 2 to 6 in (B), followed by incubation with LP1 antibody (1:1000 dilution). As a control, portions of the blot were incubated with LP1 or the 9220 antibody at a dilution of 1:1000 (lane 1 for LP1 in A and B; lane 9 in A and lane 7 in B for 9220). The apparent molecular weights of VP16 (65 KDa) and the dimer (32 KDa) and monomer (16 KDa) forms of VP22trunc are shown.
Following electrophoresis, proteins were electrotransferred to either Hybond or ProBlott (Applied Biosystems) membrane and the membrane was incubated in renaturation buffer (50 mM Tris-HCl, pH 8.0, 150 mM NaCl, 10% glycerol, 1 mM DTT) at 4° C. for 5-6 hours.
For membranes probed with either VP16 or VP22trunc, blocking was performed overnight as described for Western blot analysis. Probing with epitope-tagged VP22 or VP16 was performed in 20 mM Tris-HCl, pH 8.0, 250 mM NaCl for 1.5 hours at ambient temperature. Excess probe was removed by washing 4 times (10 minutes per wash) in 20 mM Tris-HCl, pH8.0, 250 mM NaCl, followed by incubation with the appropriate antibody at a dilution of 1:1000 in TTBS/1% gelatin for 1.5-2 hours. Bound antibody was detected as described for Western blot analysis.
Based on the studies with soluble VP16 and VP22trunc presented above, only a restricted number of peptides were examined by Far Western analysis to identify those that may prevent binding of VP16. Thus, VP22trunc was added to a crude extract of bacterially expressed VP16 and the proteins were electrophoresed on a polyacrylamide gel followed by transfer to a membrane. […] Before the addition of VP16 the blot strips in lanes 3 to 8 were incubated with crude preparations of peptides C, D, E, or E' as well as mixtures of either 0 and E or C and F. When the blot strips were incubated with peptides C and F either singly or in combination, VP16 bindincg to VP22trunc was not prevented (FIG. 7A, lanes 3, 6 and 8).

[3] = target: T1, VP16/VP22trunc interaction; experiment: ELISA of peptide inhibition of VP16 binding to VP22trunc; design: species or system HSV-1; conditions: for Inhibition of VP16 binding to VP22trunc in ELISA: D and E pure preparations, effect at 100 and 500 μg/ml, VP16 1.6 μg/ml, 160 ng VP22trunc, FIG. 9; for IC50: converted from μg/ml, maximum molarities, read-out: Molarity for 50% inhibition of VP16 binding (ELISA); for IC50 / Concentration for 50% inhibition of VP16 binding (ELISA): peptides not 100% soluble; for Concentration for 50% inhibition of VP16 binding (ELISA): pure peptide preparations, maximum values
Method: FIG. 9 Inhibitory effect of peptides D and E on the VP22trunc-VP16 interaction in ELISAs. Microtitre plates were coated with 160 ng of VP22trunc and blocked with PBS/10% NCS. Before addition to the wells, five-fold dilutions of the peptides, ranging from 500 μg/ml to 1 g/ml, were incubated with VP16 (1.6 μg/ml). Bound VP16 was detected with LP1 at a dilution of 1:1000. The legend for the peptides added is shown to the right of the graph. Values are shown relative to those obtained in the absence of the peptide.
Dilutions of proteins in PBS were coated overnight onto flat bottomed micro-titre plates (Dynatech) at 37° C. and then blocked with either 2% BSA or 10% new-born calf serum (NCS) in PBS for 1 hour at 37° C. Specific binding of a second protein to the plate-bound protein was performed for 1.5-2 hours at ambient temperature. a Excess secondary protein was removed by washing four times with PBS, 0.3% Tween 20. Bound protein was detected by incubation for 1.5-2 hours with LP1 antibody in PBS, 1% gelatin or PBS, 2% NCS. The bound antibody was detected by incubation for 1 hour at ambient temperature with anti-mouse antibody conjugated to HRP (1:500) and visualised with Smg/ml enzyme substrate 2,2'-azino-bis(3-ethylbenzthiazoline-6-sulphonic acid) (ABTS; Sigma) in citrate-phosphate buffer containing 6 μl hydrogen peroxide in a total volume of 20 ml. Optical densities were measured on a Titertek Multiscan PLUS instrument.
To adopt a more quantitative approach, an ELISA for VP16 binding to VP22trunc was developed. Optimal conditions were determined by coating wells with various quantities of VP22trunc followed by blocking with 2% BSA. Plates were then incubated with dilutions of VP16 and the bound VP16 detected with LP1.
The studies presented above have provided strong evidence in support of peptide inhibition of the interaction between VP16 and VP22. However, quantitative analysis of the ability of peptides to block any interaction is difficult to perform by the above methods. Therefore, using the ELISA system described in Results Section 2(iii) with the exception that PBS/10% NCS was utilised as a blocking agent, the inhibitory effects of peptides D and E were examined. This modification arose due to nonspecific binding of the peptides to wells when BSA was used for blocking (data not shown).

| Sequence | Solubility following purification [1] | Solubility [1] | Blocking of VP16 binding to immobilised VP22trunc (Far Western), crude peptides [2] | Blocking of VP16 binding to immobilised VP22trunc (Far Western), repeat with purified peptides D and E [2] | Inhibition of VP16 binding to VP22trunc in ELISA [3] | IC50 [3] | Concentration for 50% inhibition of VP16 binding (ELISA) [3] |
| --- | --- | --- | --- | --- | --- | --- | --- |
| CAAVGRLAAMHARMAAVQLW [Peptide E] | not 100% soluble | partly; also recorded: partially insoluble | loss of recognition of VP22trunc | able to block binding of VP16 to VP22trunc | could inhibit binding of VP16 to VP22trunc | 44.1 µM | 85.7 µg/mL |
| FSTAPPNPDAPWTPRVAGFN [Peptide C] | – | soluble | not prevented | had no effect | neither peptides B, C nor F had any effect | – | – |
| TPRVAGFNKRVFCAAVGRLA [Peptide D] | not 100% soluble | partly; also recorded: partially insoluble | loss of recognition of VP22trunc | able to block binding of VP16 to VP22trunc | could inhibit binding of VP16 to VP22trunc | 99.7 µM | 212.5 µg/mL |

— patent US6200577A, “Anti-herpesviral agents and assays therefor” (priority 1996, dated 2001)
